One series has as its system COc1cccc(CO)c1. The experiment in a line: purified protein. Particulars: free enzyme, Tris-HCl 50 mM pH 7.1, 37 °C, substrate 3-60 mM.
Another series relates to T1, horseradish peroxidase.
T1 construct: gene PRXC1A
As to the kind of experiment: spectrophotometric initial rates at […] nm (purpurogallin), non-linear Michaelis-Menten fit. Format: biochemical, Armoracia rusticana. As to conditions: free enzyme; co-substrate 10 mM H2O2; 100 mM phosphate pH 6.0; 30 °C; pyrogallol 1-8 mM.

With “galactose oxidase (Fusarium graminearum)”, in the series on COc1cccc(CO)c1, the Km (usually the substrate concentration at which the rate is half of its maximum) worked out at 17600 ± 1300 µM and the Vmax (commonly the rate approached at saturating substrate) is 216 µmol/min/mg.
For the molecule `Oc1cccc(O)c1O` [pyrogallol], the Km in the series with horseradish peroxidase is 2210 ± 40 µM.
